Source: the supplement of paper PMC10065799, “High-throughput profiling of sequence recognition by tyrosine kinases and SH2 domains using bacterial peptide display” (eLife, 2023)

Tests used:
[1] = tested on: AncSZ; test: phosphorylation enrichment, bacterial display (enrichment ratio); higher = better substrate or ligand; peptides without Tyr show the background
[2] = target: EPHB1 (UniProt P54762); test: as above
[3] = target: EPHB2 (UniProt P29323); test: as above
[4] = target: FGFR1 (UniProt P11362); test: as above
Sequence of FGFR1 (P11362 whole entry, looked up): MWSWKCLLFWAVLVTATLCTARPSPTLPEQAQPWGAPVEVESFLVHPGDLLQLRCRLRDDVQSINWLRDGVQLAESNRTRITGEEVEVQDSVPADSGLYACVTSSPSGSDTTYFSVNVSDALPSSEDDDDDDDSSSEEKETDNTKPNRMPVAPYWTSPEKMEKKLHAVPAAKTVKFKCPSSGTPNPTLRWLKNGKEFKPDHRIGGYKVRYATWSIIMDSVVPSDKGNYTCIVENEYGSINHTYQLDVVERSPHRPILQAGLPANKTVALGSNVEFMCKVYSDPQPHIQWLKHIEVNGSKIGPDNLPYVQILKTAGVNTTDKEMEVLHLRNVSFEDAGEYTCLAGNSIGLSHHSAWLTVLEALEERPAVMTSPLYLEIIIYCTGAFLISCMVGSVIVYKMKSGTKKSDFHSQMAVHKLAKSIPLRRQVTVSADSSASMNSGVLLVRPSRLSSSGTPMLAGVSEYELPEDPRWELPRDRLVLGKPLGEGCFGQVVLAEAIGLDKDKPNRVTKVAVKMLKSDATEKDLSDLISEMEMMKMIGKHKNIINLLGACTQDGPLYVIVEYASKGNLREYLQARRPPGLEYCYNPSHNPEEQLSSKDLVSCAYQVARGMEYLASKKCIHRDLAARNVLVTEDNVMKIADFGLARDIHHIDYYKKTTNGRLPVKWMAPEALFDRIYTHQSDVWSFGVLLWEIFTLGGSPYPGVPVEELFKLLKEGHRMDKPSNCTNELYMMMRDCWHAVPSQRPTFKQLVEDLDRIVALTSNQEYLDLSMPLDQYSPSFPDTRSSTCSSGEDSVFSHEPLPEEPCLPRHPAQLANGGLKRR

[5] = target: FGFR3 (UniProt P22607); test: as above
Sequence of FGFR3 (P22607 whole entry, looked up): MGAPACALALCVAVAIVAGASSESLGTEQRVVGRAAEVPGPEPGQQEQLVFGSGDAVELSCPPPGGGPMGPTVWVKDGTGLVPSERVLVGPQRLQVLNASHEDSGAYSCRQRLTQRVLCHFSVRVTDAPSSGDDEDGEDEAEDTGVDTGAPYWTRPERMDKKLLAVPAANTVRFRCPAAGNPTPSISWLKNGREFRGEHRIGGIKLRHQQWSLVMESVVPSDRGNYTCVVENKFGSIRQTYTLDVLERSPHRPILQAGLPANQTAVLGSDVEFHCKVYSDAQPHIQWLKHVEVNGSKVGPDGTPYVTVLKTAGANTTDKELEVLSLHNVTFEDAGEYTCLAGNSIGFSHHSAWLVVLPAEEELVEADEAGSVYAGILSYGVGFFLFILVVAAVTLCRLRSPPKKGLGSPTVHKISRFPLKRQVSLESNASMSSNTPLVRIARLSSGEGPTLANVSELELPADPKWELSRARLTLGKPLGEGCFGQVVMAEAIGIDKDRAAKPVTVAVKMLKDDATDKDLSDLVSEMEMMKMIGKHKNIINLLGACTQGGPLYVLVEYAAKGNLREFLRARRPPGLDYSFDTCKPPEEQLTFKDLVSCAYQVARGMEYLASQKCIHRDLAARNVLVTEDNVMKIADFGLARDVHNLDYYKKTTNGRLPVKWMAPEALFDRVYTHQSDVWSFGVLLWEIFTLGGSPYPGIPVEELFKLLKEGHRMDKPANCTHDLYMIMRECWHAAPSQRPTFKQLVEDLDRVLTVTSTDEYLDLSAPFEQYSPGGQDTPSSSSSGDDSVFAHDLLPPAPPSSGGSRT

[6] = tested on: Fer (mouse); test: as above
[7] = target: Fes (UniProt P07332); test: as above
Sequence of Fes (P07332 whole entry, looked up): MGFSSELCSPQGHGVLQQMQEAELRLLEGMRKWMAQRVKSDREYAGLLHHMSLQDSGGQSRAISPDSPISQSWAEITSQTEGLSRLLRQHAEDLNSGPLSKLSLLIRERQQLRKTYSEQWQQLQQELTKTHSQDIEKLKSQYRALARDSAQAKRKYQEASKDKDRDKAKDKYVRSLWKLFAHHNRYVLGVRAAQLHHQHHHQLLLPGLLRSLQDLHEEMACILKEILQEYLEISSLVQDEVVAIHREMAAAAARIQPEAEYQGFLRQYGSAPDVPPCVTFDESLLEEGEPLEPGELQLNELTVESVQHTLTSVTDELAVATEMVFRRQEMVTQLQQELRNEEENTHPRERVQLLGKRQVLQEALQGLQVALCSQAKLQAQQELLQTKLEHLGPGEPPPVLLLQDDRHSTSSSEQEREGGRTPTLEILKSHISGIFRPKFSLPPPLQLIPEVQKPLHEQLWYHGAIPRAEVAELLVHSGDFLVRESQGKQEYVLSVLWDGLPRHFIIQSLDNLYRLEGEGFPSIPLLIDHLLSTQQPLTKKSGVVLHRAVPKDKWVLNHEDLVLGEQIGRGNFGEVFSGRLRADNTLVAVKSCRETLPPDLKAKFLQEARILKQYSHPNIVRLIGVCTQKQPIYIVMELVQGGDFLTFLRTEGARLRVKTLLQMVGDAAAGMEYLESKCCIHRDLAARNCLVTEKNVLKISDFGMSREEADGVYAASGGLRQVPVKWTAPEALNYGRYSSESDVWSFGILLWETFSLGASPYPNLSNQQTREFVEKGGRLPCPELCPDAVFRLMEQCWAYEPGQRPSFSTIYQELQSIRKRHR

[8] = target: Fyn (UniProt P06241); test: as above
Sequence of Fyn (P06241 whole entry, looked up): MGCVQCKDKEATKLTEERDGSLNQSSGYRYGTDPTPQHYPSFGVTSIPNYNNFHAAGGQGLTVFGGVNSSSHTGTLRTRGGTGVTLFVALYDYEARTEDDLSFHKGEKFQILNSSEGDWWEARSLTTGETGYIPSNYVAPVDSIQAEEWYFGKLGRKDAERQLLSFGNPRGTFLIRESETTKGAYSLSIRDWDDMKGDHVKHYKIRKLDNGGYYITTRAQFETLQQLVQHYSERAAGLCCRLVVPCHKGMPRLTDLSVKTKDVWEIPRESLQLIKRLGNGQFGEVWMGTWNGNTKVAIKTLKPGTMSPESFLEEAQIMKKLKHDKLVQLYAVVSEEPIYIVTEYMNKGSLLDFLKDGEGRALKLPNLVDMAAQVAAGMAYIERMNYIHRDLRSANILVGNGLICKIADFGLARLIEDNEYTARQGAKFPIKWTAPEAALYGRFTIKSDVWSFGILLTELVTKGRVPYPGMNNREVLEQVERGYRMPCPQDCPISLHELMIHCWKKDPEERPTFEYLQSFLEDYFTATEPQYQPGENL

[9] = target: Hck (UniProt P08631); test: as above
[10] = target: Jak2 (UniProt O60674); test: as above
[11] = target: MERTK (UniProt Q12866); test: as above
Sequence of MERTK (Q12866 whole entry, looked up): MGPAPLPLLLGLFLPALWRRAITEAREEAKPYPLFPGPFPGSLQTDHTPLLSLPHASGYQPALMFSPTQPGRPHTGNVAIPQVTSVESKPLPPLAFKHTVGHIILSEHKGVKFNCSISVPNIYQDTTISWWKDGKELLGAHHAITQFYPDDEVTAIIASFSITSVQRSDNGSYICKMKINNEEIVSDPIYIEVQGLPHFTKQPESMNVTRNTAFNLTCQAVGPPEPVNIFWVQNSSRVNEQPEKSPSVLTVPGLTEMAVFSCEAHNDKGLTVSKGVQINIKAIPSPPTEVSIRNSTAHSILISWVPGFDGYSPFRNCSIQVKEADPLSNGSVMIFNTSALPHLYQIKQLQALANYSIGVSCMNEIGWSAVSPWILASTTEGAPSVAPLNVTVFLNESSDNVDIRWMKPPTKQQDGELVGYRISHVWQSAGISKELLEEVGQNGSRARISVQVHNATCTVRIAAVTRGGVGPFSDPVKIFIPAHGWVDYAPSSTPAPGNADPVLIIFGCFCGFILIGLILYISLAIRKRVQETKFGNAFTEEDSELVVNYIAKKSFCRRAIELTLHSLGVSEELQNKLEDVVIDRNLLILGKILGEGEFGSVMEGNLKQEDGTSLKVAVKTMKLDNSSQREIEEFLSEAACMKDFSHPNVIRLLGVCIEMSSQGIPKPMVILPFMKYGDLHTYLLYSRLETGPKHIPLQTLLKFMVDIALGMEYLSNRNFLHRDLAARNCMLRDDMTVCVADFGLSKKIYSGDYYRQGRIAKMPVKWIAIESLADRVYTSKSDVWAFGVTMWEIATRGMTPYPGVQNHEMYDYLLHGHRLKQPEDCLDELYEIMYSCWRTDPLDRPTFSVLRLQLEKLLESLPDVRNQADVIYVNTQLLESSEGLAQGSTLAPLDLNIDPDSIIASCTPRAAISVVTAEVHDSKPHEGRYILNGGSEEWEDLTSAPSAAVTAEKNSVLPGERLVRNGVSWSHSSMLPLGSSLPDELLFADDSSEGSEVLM

[12] = tested on: c-Abl (mouse); test: as above
[13] = tested on: c-Src; test: as above
[14] = target: Grb2 SH2 (UniProt P62993); test: SH2 binding enrichment of the phosphorylated peptide, bacterial display (enrichment ratio); higher = better substrate or ligand; peptides without Tyr show the background
[15] = target: SHP2-C SH2; test: as above
[16] = target: c-Src SH2; test: as above
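Wherever SH2 binding enrichment of the phosphorylated peptide, bacterial display is given: peptide library displayed on the E. coli surface as eCPX fusions, selected cells deep-sequenced, score is each peptide's frequency after selection divided by its frequency in the input.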
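Wherever phosphorylation enrichment, bacterial display is given: 11-residue human phosphosite peptides and single-mutation variants displayed on the E. coli surface, counted by deep sequencing, each peptide's frequency after selection divided by its frequency in the unselected input library; frequency after pTyr selection over input frequency; kinase dosed for 20-30% of maximal phosphorylation in three min.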

Sequence of EPHB1 (P54762 whole entry, looked up): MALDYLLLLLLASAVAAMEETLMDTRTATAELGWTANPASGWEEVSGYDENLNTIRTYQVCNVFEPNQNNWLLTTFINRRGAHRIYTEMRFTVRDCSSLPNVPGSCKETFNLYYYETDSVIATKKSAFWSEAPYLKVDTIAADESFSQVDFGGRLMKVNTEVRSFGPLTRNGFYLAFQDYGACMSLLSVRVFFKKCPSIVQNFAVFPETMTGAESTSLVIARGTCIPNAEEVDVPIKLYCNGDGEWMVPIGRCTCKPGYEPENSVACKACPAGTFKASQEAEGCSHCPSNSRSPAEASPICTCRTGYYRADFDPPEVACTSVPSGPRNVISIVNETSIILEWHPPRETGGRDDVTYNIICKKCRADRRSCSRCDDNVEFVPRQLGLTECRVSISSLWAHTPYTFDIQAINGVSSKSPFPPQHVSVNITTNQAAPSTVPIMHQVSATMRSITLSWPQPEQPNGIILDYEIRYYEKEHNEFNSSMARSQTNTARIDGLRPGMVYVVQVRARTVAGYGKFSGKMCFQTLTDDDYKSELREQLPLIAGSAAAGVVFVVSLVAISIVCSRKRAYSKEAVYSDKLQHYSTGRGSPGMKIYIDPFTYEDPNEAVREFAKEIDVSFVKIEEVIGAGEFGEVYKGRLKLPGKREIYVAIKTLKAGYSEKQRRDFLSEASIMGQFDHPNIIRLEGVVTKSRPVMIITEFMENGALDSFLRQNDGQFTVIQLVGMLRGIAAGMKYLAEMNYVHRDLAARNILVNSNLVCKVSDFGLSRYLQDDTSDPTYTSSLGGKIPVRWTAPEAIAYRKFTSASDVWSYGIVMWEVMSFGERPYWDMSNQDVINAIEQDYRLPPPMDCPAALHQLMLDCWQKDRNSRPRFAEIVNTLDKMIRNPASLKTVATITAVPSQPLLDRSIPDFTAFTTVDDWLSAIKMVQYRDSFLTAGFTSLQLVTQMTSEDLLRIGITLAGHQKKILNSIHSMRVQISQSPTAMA

Sequence | SH2 binding enrichment [14] | SH2 binding enrichment [15] | SH2 binding enrichment [16] | phosphorylation enrichment [1] | phosphorylation enrichment [2] | phosphorylation enrichment [3] | phosphorylation enrichment [4] | phosphorylation enrichment [5] | phosphorylation enrichment [6] | phosphorylation enrichment [7] | phosphorylation enrichment [8] | phosphorylation enrichment [9] | phosphorylation enrichment [10] | phosphorylation enrichment [11] | phosphorylation enrichment [12] | phosphorylation enrichment [13]
SVVVPYEPPED [TP53_Y220_V225D] | 0.874 | 0.778 | 0.769 | 1.31 | 0.607 | 0.641 | 0.545 | 0.759 | 0.549 | 1.4 | 0.479 | 0.544 | 1.15 | 0.441 | 0.772 | 0.491
PQEVMYAQLDH [KIR3DL2_Y398_T397M] | 0.748 | 6.57 | 1.21 | 1.62 | 1.06 | 0.621 | 2.69 | 2.2 | 4.04 | 1.52 | 6.26 | 5.19 | 1.71 | 6.77 | 7.37 | 7.15
KAPPTYDTVLQ [CYP3A4_Y347] | 0.887 | 0.556 | 2.28 | 0.686 | 6.72 | 7.86 | 0.36 | 0.483 | 2.09 | 0.735 | 2.46 | 2.98 | 0.576 | 1.89 | 0.663 | 1.44
HTKKNYGNSSV [HDX_Y197_A193T] | 0.907 | 0.647 | 0.532 | 0.443 | 0.181 | 0.403 | 0.252 | 0.515 | 0.393 | 0.656 | 0.337 | 0.462 | 0.433 | 0.442 | 0.331 | 0.472
NGQAVYAACQT [XDH_Y1092] | 0.685 | 0.618 | 0.427 | 0.545 | 2.24 | 2.2 | 0.506 | 0.371 | 2.4 | 0.706 | 4.76 | 4.26 | 0.378 | 1.64 | 3.5 | 3.51
KNCFKYYMSDD [ATRX_Y203] | 0.828 | 0.785 | 0.835 | 1.4 | 0.794 | 0.701 | 0.547 | 1.01 | 0.624 | 1.37 | 0.54 | 0.595 | 1.16 | 0.496 | 0.961 | 0.572
CLAKMYFSAVE [CP_Y539_D544E_YF] | 1.09 | 0.834 | 0.621 | 1.22 | 0.589 | 0.552 | 0.599 | 0.909 | 0.602 | 1.35 | 0.822 | 0.663 | 1.19 | 0.514 | 0.848 | 0.721
KRGIDYILWHM [FRMD1_Y225_R228W] | 1.56 | 1.5 | 1.08 | 1.04 | 0.765 | 0.824 | 1.33 | 0.984 | 0.591 | 1.15 | 0.5 | 0.536 | 1.06 | 0.548 | 0.788 | 0.414
PSAELYSFALP [PDGFRB_Y716_N718Y_YF] | 0.911 | 0.631 | 0.546 | 2.77 | 10.7 | 11.8 | 6.2 | 5.36 | 17.4 | 1.28 | 7.74 | 6.93 | 1.03 | 13.2 | 1.51 | 7.32
PLKALYLQQRP [ATM_Y2969] | 1.3 | 1.07 | 0.914 | 0.954 | 0.766 | 0.687 | 0.774 | 0.743 | 0.764 | 1.49 | 0.822 | 0.642 | 1.17 | 0.695 | 0.934 | 0.576
KTDKKYLMIEE [BAG3_Y451] | 0.762 | 0.573 | 0.473 | 0.867 | 0.436 | 0.635 | 0.463 | 0.746 | 0.647 | 1.11 | 0.477 | 0.516 | 0.96 | 0.424 | 0.807 | 0.532
HHLSTYTKMLF [CHST8_Y251_R247H] | 1.11 | 3.88 | 2.54 | 1.39 | 0.956 | 0.902 | 0.714 | 1.05 | 0.504 | 1.32 | 0.989 | 0.814 | 0.743 | 0.541 | 0.792 | 0.71
RELGEYGLQAF [ALDH2_Y497_YF] | 1.15 | 1.04 | 0.758 | 1.07 | 0.707 | 1.07 | 0.653 | 0.793 | 0.816 | 1.66 | 0.775 | 0.772 | 0.724 | 1.87 | 0.951 | 0.704
LARNMYDKEFF [MET_Y1230_D1228N_YF] | 0.427 | 0.739 | 0.541 | 1.03 | 0.706 | 0.592 | 0.602 | 0.62 | 0.541 | 1.01 | 0.529 | 0.694 | 1 | 0.578 | 0.793 | 0.626
FTHSDYQFGQR [PKP2_Y166_S169G_YF] | 1 | 1.05 | 0.626 | 0.697 | 0.389 | 0.471 | 0.465 | 0.474 | 0.453 | 0.687 | 0.443 | 0.518 | 0.583 | 0.469 | 0.553 | 0.457
FGAHNYHPLPV [OAT_Y55_YF] | 0.817 | 0.493 | 0.893 | 1.64 | 0.573 | 0.677 | 6.41 | 3.33 | 0.35 | 0.535 | 0.468 | 0.606 | 0.58 | 1.04 | 0.562 | 0.538
TLEKYYFAFPG [SLC1A1_Y51_F50Y] | 1.06 | 0.954 | 0.614 | 1.75 | 7.36 | 11.1 | 14.6 | 12 | 0.632 | 1.09 | 4.5 | 3.38 | 8.54 | 11.5 | 9.74 | 6.16

Continued, in another order:

SH2 binding enrichment [14] | SH2 binding enrichment [15] | SH2 binding enrichment [16] | Sequence | phosphorylation enrichment [1] | phosphorylation enrichment [2] | phosphorylation enrichment [3] | phosphorylation enrichment [4] | phosphorylation enrichment [5] | phosphorylation enrichment [6] | phosphorylation enrichment [7] | phosphorylation enrichment [8] | phosphorylation enrichment [9] | phosphorylation enrichment [10] | phosphorylation enrichment [11] | phosphorylation enrichment [12] | phosphorylation enrichment [13]
0.877 | 0.563 | 0.358 | TSNQEYLFLSM [FGFR1_Y766_D768Y_YF] | 1.21 | 0.765 | 0.721 | 5.2 | 3.32 | 0.557 | 1.09 | 0.574 | 0.572 | 1.06 | 0.469 | 0.813 | 0.488
0.729 | 0.45 | 0.515 | NNIDFYKKTTN [FGFR2_Y657_YF] | 0.637 | 0.639 | 0.397 | 0.338 | 0.467 | 0.388 | 0.695 | 0.393 | 0.435 | 0.722 | 0.364 | 0.498 | 0.422
0.927 | 0.783 | 0.623 | EREYKYGAHNY [OAT_Y50] | 0.516 | 0.354 | 0.376 | 0.348 | 0.43 | 0.35 | 0.558 | 0.445 | 0.333 | 0.5 | 0.397 | 0.506 | 0.394
1.06 | 0.646 | 0.473 | PSAVAYPKRSQ [MARK3_Y432_V429A] | 0.697 | 0.544 | 0.563 | 0.382 | 0.545 | 0.444 | 0.818 | 0.563 | 0.441 | 0.577 | 0.685 | 0.615 | 0.696
1.44 | 0.632 | 0.717 | RVILRYVNPGT [LAMA3_Y791] | 1.06 | 0.838 | 0.666 | 0.538 | 0.883 | 0.606 | 1.13 | 0.591 | 0.561 | 0.947 | 0.385 | 0.663 | 0.448
1.01 | 0.622 | 0.782 | KELAKYYKLHH [AK7_Y390_N389K] | 0.472 | 0.366 | 0.363 | 0.377 | 0.418 | 0.383 | 0.472 | 0.35 | 0.39 | 0.379 | 0.422 | 0.46 | 0.439
0.898 | 0.581 | 0.494 | AEFGLYAAMVR [VSX2_Y222_G223A_YF] | 1.29 | 2.79 | 2.14 | 0.614 | 0.888 | 1.4 | 1.24 | 2.44 | 4.34 | 1.54 | 2.69 | 1.09 | 2.17
0.894 | 0.802 | 0.732 | KLSCSYSHWSA [C4BPA_Y470] | 1.13 | 0.716 | 0.771 | 0.793 | 0.91 | 0.657 | 1.28 | 0.578 | 0.636 | 0.894 | 0.527 | 1.15 | 0.672
0.847 | 0.585 | 0.452 | NAMRRYIEEFQ [MNS1_Y244] | 0.734 | 0.352 | 0.459 | 0.458 | 0.501 | 0.417 | 0.819 | 0.371 | 0.413 | 0.516 | 0.346 | 0.541 | 0.347
0.884 | 0.75 | 0.889 | ECKETYHEGEC [PRKN_Y372_A371T] | 1.47 | 0.608 | 0.728 | 0.721 | 0.808 | 0.696 | 1.62 | 0.649 | 0.694 | 1.62 | 0.629 | 1.03 | 0.645
1.19 | 1.11 | 1.02 | RAVLLYEYVGK [NATD1_Y45] | 3.07 | 28.2 | 35.4 | 3.61 | 3.99 | 19.4 | 4.82 | 6.98 | 10.4 | 0.857 | 11.4 | 1.24 | 5.21
0.75 | 0.647 | 0.455 | AAVNGYAFGGG [ECHS1_Y137] | 0.495 | 0.347 | 0.389 | 0.435 | 0.406 | 0.473 | 0.553 | 0.423 | 0.344 | 0.521 | 0.324 | 0.548 | 0.379
1.42 | 1.4 | 1.67 | CTTIHYNYKCN [TP53_Y234_M237K] | 0.754 | 0.433 | 0.539 | 0.526 | 0.566 | 0.408 | 0.878 | 0.454 | 0.484 | 0.62 | 0.562 | 0.493 | 0.454
0.813 | 0.961 | 0.461 | DDKEYYSVHNK [MET_Y1235_Y1230D] | 1.93 | 0.563 | 0.629 | 1.6 | 1.51 | 0.603 | 1.06 | 0.529 | 0.791 | 1.17 | 0.405 | 0.942 | 0.874
0.706 | 0.678 | 0.491 | REAMEYLESKQ [BTK_Y511_C506R] | 1.62 | 0.657 | 0.573 | 0.754 | 0.794 | 0.704 | 1.15 | 0.703 | 0.505 | 1.09 | 0.501 | 1.15 | 0.701
0.912 | 0.847 | 0.856 | TEALYYTDDTA [ADPRS_Y75] | 1.46 | 1.31 | 0.78 | 3.91 | 4.22 | 1.97 | 2.09 | 2.63 | 1.82 | 0.833 | 4.21 | 0.633 | 1.9
